The record followed here is article doi:10.1101/2024.09.29.615664.

The experiment has as its target reconstituted mononucleosome with unmodified H3K56 (UniProt P68431). Description: pull-down.

Regarding “MutSβ (MSH2-MSH3 complex), purified (from UniProt P43246;P20585)”, the fold of MSH3 pulled down against the H3K56ac-nucleosome turned out to be 4 fold.
